From the nanobody polyreactivity screen of Harvey et al. (2022) come the findings set out here.

A short description of the series: yeast display, Sf9 membrane polyspecificity reagent, FACS + sequencing; frameworks hold sequencing errors. The method, boiled down: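 Synthetic nanobody libraries on Saccharomyces cerevisiae BJ5465 were galactose-induced for 36–48 hours, stained 1 hour at 4 °C with 10% biotinylated, detergent-solubilized Sf9 membrane reagent and enriched on streptavidin microbeads. FACS then separated cells into low and high (top ~1%) gates by anti-HA (expression) and streptavidin (reagent binding) fluorescence. Genes were colony-PCR amplified, MiSeq 2 × 250 sequenced and CDR-length filtered. A clone's polyreactivity label is that of its gate of origin.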
In the case of “QVQLVESGGGLVQAGGSLRLSCAASVFTFTVNTMGWYRQAPGKERELVAANSNTGSTKYADSVKGRFTISRDKAKNTLYLQMNSLKPEDTAVFYCAAEPGYYSRPDYRVYRVYYWGQGTQVTVSS”, the “polyreactivity (PSR sort gate)” value is reported as “high polyreactivity”.
On to “QVQLEESGGGLVQAGGSLRLSCAASGLIFIQYAMVWNRQAPGKERELVAAISGSGVTTYYADSVNGSFTISRDKAMNTVYLQMTSLKPEDTAVYYCNAALRWKYDWGQGTQVTVSS”, for which the “polyreactivity (PSR sort gate)” value is reported as “low polyreactivity”.
The entry for “QDQLVESGGGLVQAGGSLRLSCAASGFIFGLNAMGWYRQAPGKERELVASISRRCGSTYYAYSVKGRFTISRDNAKNTVYLQMNSLKPEDTAVYYCASDTLGGTSLGDYWGQGIQVTVSS” is “high polyreactivity”; for “QVQLVESGGGLVQAGGSLRLTCAASGSTFGDYDMGWYRQAPGKERELVAAISNGGSTYYADSVKGRFTISRDNAKNTVYFQMNSLKPEDTAVYYCNADNVEIRSTYEYGRYLYGYWGQGTQVTVSS” it is “low polyreactivity”.
As for “QVQLVESGGGLVQAGGSLRLSCAASGSIFARNAMGWYRQAPGKERELVAAISRSGGITYYADSVKGRFTISRDNAKNTVYLQMNSLKPEDTAVYYCATVGYYKGNQVLPAKDGDSWGQGTQVTVSS”, the “polyreactivity (PSR sort gate)” value is “high polyreactivity”.
As for “QVQLVESGGGLVQAGGSLRLSCAASGRIFQWYAMGWYRQAPGKERELVAAISWRDGRTYYADSVKGRFTISRDNAKNNVYLQMNSLKPEDTAVYYCAVRTFGRYGYWGQGTQVTVSS”, the “polyreactivity (PSR sort gate)” value is reported as “high polyreactivity”.
As for “QVQLHESGGGLVQAGGSLRLSCAASGTISQEDWMGWYRKAPRKEREFVAAIGLGSNTNYADSLKGRFTISRDNANNTVYLQMNSLKPEDTAVYYCAVSVWQYSDHVYRGQGTQVTVSS”, the “polyreactivity (PSR sort gate)” value is on record as “low polyreactivity”.
In the case of “QVQLVESGGGLVQAGGSLRLSCAASGRTSVWYTMGWYRQAPGKEREFVASITGSGTYYADSVKGRFTISRDNAKNTVYLQMNSLKPEDTAVYYCAKRGYGYWGQGTQVTVSS”, the “polyreactivity (PSR sort gate)” value is reported as “high polyreactivity”.
In the case of “QVQLVESGGGLVQAGGILRLSCAASGFIFWDYAMGWYRQAPGTERELVADISDSGGDTYYADSVKGRFTISRDNAKNTVYLQMNSLKPEDTAVYYCAADVELWVFRGQQYDYWGQVTQVTVSS”, the “polyreactivity (PSR sort gate)” value was “low polyreactivity”.
On to “QVQLVESGGGLVQAGGSLRLRCAASGIIFSYYAMGLSRQAPGKERELFAAISSSGSTNYADSVKGRFTISRDNAKNTVYLQMNSLKPEDTAVYYCNAGYGRRVYVYSFKLRYNYWGQGTQVTVSS”, for which the “polyreactivity (PSR sort gate)” value was “high polyreactivity”.
On to “QVQLVESGGGLVQAGGSLRLSCAASGSTFSTNAMGWYRQAPGKERELVAAISRSGGSTYYADSVKGRFTISRDNAKNTFYLQMNSLKPEDTAVYYCARYSYRGTNVRYDYCGQGTQVTVSS”, for which the “polyreactivity (PSR sort gate)” value is on record as “high polyreactivity”.
On to “QVQLVESGAGLVQAGGSLRLSCAPSGRIFDKYAMGWYRQAPGTERELVAAIDWSGGSTYYADSVKGRFTISRDNAKNTVYLQMNCLKPEDTAVYYCAAYWYYEDGQSEARLYGYDYWGQGTQVTVSS”, for which the “polyreactivity (PSR sort gate)” value is on record as “low polyreactivity”.
As for “QVQLVESGGGLVQAGGSLRLSCAASGLIFGYYALGWYRQAPGKDRELVAAINSGGSTYYADTVKGRFTISRDNAKNTVYLQMNSLKPEDTPVYNCAARYYSEYDYWGHGTQVTVSS”, the “polyreactivity (PSR sort gate)” value was “low polyreactivity”.
Under “QVQLVESGGGLVQAGGSLRLSCAASGITFKANAMGWYRQAPGKERELVAAIRQNGGDTYYADSVKGRFTISRDNAKNTVYLQMNSLKPEDTAVYYCNARLRGAGGYTFYYWGQGTQVTVSS” stands “high polyreactivity”; under “QVQLVESGGGLVQAGGSLRLSCAASGNTFVYNDMGWSRQAPGKERELVADIRYSGSTYYADSVMGRFTISRDNAKNTVYLQMNSLKPEDTAVYYCAKAYYVLSWMGYWGQGTPVTVSS”, “low polyreactivity”; under “QVQLVESGGGLVQAGGSLRLSCAASGITISYYAMGWYRQAPGKERELVAAISFSGARTYYADSVKGRFTISRDNAKNTVYLQMNSLKPEDTAVYYCNAVSGIVQRYDYWGQGTQVTVSS”, “high polyreactivity”.
Consider “QVQLVESGGGLVQAGGSLRLSCAASGYTFYVYTMGWYRPARGKERELVAAISGSGTSTYYADSVKRRFTISRDNAKNTVYLQMNSLKPEDTAVYYCNAQDSLTTVPDPEYDYWGQGTQVTVSS”, for which the “polyreactivity (PSR sort gate)” value was “low polyreactivity”.
Turning to “QVQLVESGGGLVQAGGSHRLSCAASGSTFFSYAMGWYRQAPGKERELVAAITSNGGTTHYADSVKGRFTISRDNAKNTVYLQMNSLKPEDTAVYYCAKAQGHVRGSRGLQGGRYDYWGQGTQVTVSS”, the “polyreactivity (PSR sort gate)” value is recorded as “low polyreactivity”.
Under “QVQLVESGVGLVQAGGRLRLSCAASGLIFNDNMGWYRQSPGKEREVVAAISSSGGSTSYADSVKGRFTISRDNAKNTVYLQMNSLKPEDTAVYYCAADSYPAYLGFVGFDYWGQGTQVTVSS” stands “low polyreactivity”; under “QVQLVESGGGLVQAGGSLRLSCAASGFIFAEYAMGWYRQAPGKERELVAAITSGGSTSYADSVKGRFTISRDNAKNTVYLQMNSLKPEDTAVYYCAATWYYHYNDWKHWYEYGYWGQGTQVTVSS”, “low polyreactivity”.
“QVQLVESGGGLVQAGGSLRLSCAASGSTFDNYAMGWYRQAPGKERELVAAINSRGGRTYYADSVKGRFTISRDNAKNTVYLQMNSLKPEDTAVYYCAAVGATHRFDYWGQGTQVTVSS”: the “polyreactivity (PSR sort gate)” value is on record as “high polyreactivity”.
For “QVQLVESGGGLVQAGGSLRLSCAASGRTFNSYAMGWYRQAPGKERELVAAISWNTGSTYYADSVKGRFTISRDNAKNTVYLQMNSLKPEDTAVYYCAAEGELYTAFGTLSFDYWGHGTQVTVSS”, the “polyreactivity (PSR sort gate)” value is “high polyreactivity”.
On to “QVQLVESGGGLVKAGVSLRLSCAASGSIFVGYAMGWYRQAPGKERELVAAIRSGGSTKYADSVKGRFTISRDNAKNTVYLQMNSLKPEDTAVYYCNVEVHPYYWVDNFHRYPVLHNYWGQGTQVTVSS”, for which the “polyreactivity (PSR sort gate)” value is given as “low polyreactivity”.
With “QVQLVESGGGLFQAGGSLRLSCAASGRTLLGNAMVWYRQAPGKEREFVAAISYRGGSTYYADSVKGRFTISRDYAKNTVYLQMKSLKPEDTAVYYCAASSFKYSRFDYWGQGTQVTVSS”, the “polyreactivity (PSR sort gate)” value is “low polyreactivity”.
Under “QVQLVESGGCLVQAGGSLRLSCAASGSTFYLNAMGWYRQAPGKEREMVAAITVSGGSTYYADSVKGRFTISRDNAKNTVYLQMNSLKPVDTAVYFCSRELLCPTYQRWYYYWGLGTQVTVSS” stands “low polyreactivity”; under “QVQLVESGGGLVQAGGSLRLISAASGFIFRYNAMGWYRQAPGKESELVATISSGGGNTYYADSVKGRFTISRDNAKNTVYLQMNSLKPEDTAVYYCAARRYYGVYYAFYYWGQGTQVTVSS”, “high polyreactivity”; under “QVHLVESGGGLVQAGGSLRLSCAASGSIFFDGNAMGWYRQAPGKERELVAAISVSGGSTYYADSVKGRFTISRDNAKNTVYLQMNSLKPEDTAVYYCAKYPSNSYVPGDYWGQGTQVTVSS”, “low polyreactivity”.
The entry for “QVQPVESRGGLVQAGGSLRLSCAASGRIFARNAQGWYRTAPGKERELVAAITYSSGRTYYADSVKGRFTISRDNAKNTVYLQMNSLKPEHTAVYYCADGKGYIGVSVSGGYGYWGPGTQVTVSS” is “high polyreactivity”.
As to “QVQLVESGGGLVQAGGSLRLSCAASGRIFPYNAMGWYRQAPGKERELVASITGSGGSTYYADSVKGRFTISRDKAKKTVYLQMNSLKPEDTAVYYCAVQGGYFYTWDGDYWGQGTQVTVSS”, the “polyreactivity (PSR sort gate)” value is recorded as “low polyreactivity”.
With “QVQLVESGGGLVQAGGSLRLSCAASGSIFIPNAMGWYRQAPGKERELVAAITSGGRTYYADSVKGRFTISRDNAKNTVYLQMNSLKPEDTAVYYCAARSGYRYVESDYWGQGTQVTVSS”, the “polyreactivity (PSR sort gate)” value is “high polyreactivity”.
As to “QVQLVESGGGLVQAGGSLRLICAASGRNCVYYAMGWYRQAPGKERELVAAITSGDSTYYADSVKGRFTISRDNAKNTVYLQMNSLKPEDTAVYYCAADHYYGSESGGFVIYYYWGQGTQVTVSS”, the “polyreactivity (PSR sort gate)” value is on record as “low polyreactivity”.
With “QVQLVESGGGLVQAGGSLRLSCAASGSTFSANAMGWYRQAPGKERELVAAISRRGGSTNYADSVKGRFTISRDNAKNTVYLQMNSLKPEDTAVYYCAALYVPRSPFSYDYWGQGTQVTVSS”, the “polyreactivity (PSR sort gate)” value is “high polyreactivity”.
Regarding “QVQLVESGGGLVQAGGSLRLSCAASGFTFPGYAMGWYRQAPGKERELVAAISYSSGSTYYADSVKGRFTISRDNAKNTVYLQMNSLKPEDTAVYYCAAYFSPVGFQYDYWGQGTQVTVSS”, the “polyreactivity (PSR sort gate)” value was “high polyreactivity”.
On to “QVQLVESGGGLVQAGGSLRLSCAASGFTFGLYGMGWYRQAPGKERELVAAISSSGGDTYYADSVKGRFTISRDNAKNTVYLQMNSLKPEDTAVYYCAATADWATYDYWGQGTQVTVSS”, for which the “polyreactivity (PSR sort gate)” value is “low polyreactivity”.
On to “QVQLVESGGGLVQAGGSLRLSCAASGLTFRGYAMGWYRQAPGKERELVAAITSSAGRTYYADSVKGRFTISRDNAKNTVYLQMNSLKPEDTAVYYCAAEYASWFGSMNYWGQGTQVTVSS”, for which the “polyreactivity (PSR sort gate)” value is recorded as “high polyreactivity”.
In the case of “QVQLVESGGGLVQAGGSLRLSCAASGSIFCDNAMGWYRQEPGKERELVAAISIVGSTSYADSVKGRFTISRDNANNTVYLQMNSLKPEDTAVYYCAAENVRSDTGFDYWGQGTQVTVSS”, the “polyreactivity (PSR sort gate)” value is listed as “low polyreactivity”.
Consider “QVQLVESGGGLVQAGGSLRLSCAASGYTFSFNAMGWYRQAPGKERELVAAINRGTSTNYADSVKGRFTISRDNAKNTVYLQMNSLKPEDTAVYYCAAGFRRSAGRYDLDYWGQGTQVTVSS”, for which the “polyreactivity (PSR sort gate)” value is “high polyreactivity”.
Consider “QVQHVESGGGLVQAGGSLRLSCAASGRTFYRNAMGWSRQAPGKERELVARINDGAGTYYADSVKGRFTISRDNAKNTVYLQMNSLKPEDTAVYYCAADYGSKLDYGYWGQGTQVTVSS”, for which the “polyreactivity (PSR sort gate)” value is on record as “low polyreactivity”.
Under “QVQLVESGGGLVHAGGSLRLSCAASGFIYPGNAKGWYIQAPGKERELVAAISNSGSRTYYADSVKGRFTISRDHAMNTVYLQMNSLKPEDTAVYYCNADVDNRGWPYDYWGQGTQVNVSS” stands “low polyreactivity”; under “QVQLVESGGGLVQAGGSLRLSCAASGSIFYFYAMGWYRQAPGKERELVAAISSRGTSTYYADSVKGRFTISRDNAKNTVYLQMNSLKPEDTAVYYCAAQIYVYYQRRPPYDYWGQGTQVTVSS”, “high polyreactivity”.
